Test results from US20230265151A1, “GIP/GLP1 CO-AGONIST COMPOUNDS” (priority 2020, published 2023).
Numbering of substitutions follows the chain as printed. Where two headings read alike, the source gives them in different places.

B1: Example 223 (peptide)
peptide: YXEGTXTSDXSIXLDXIAQXEFIXXLIKGGPSSGAPPPSK
modifications: Y-Aib-EGT-αMeF(2F)-TSD-4Pal-SI-αMeL-LD-Orn-IAQ-Aib-EFI-(D-Glu)-αMeY-LIK((2-[2-(2-Amino-ethoxy)-ethoxy]-acetyl)2-CO-(CH2)12-CO2H)GGPSSGAPPPSK((2-[2-(2-Amino-ethoxy)-ethoxy]-acetyl)2-CO-(CH2)12-CO2H)-NH2
B2: Example 232 (peptide)
peptide: B1 peptide with X10Y, S11X, I17K, K28E
modifications: Y-Aib-EGT-αMeF(2F)-TSDY-Aib-I-αMeL-LD-Orn-K((2-[2-(2-Amino-ethoxy)-ethoxy]-acetyl)2-(γ-Glu)-CO-(CH2)12-CO2H)AQ-Aib-EFI-(D-Glu)-αMeY-LIEGGPSSGAPPPSK((2-[2-(2-Amino-ethoxy)-ethoxyl-acetyl)2-(γ-Glu)-CO-(CH2)12-CO2H)-NH2
B3: Example 229 (peptide)
peptide: B1 peptide
modifications: Y-Aib-EGT-αMeF(2F)-TSD-4Pal-SI-αMeL-LD-Orn-IAQ-Aib-EFI-(D-Glu)-αMeY-LIK((2-[2-(2-Amino-ethoxy)-ethoxy]-acetyl)3-(γ-Glu)-CO-(CH2)12-CO2H)GGPSSGAPPPSK((2-[2-(2-Amino-ethoxy)-ethoxy]-acetyl)3-(γ-Glu)-CO-(CH2)12-CO2H)-NH2
B4: Example 238 (peptide)
peptide: B1 peptide with X10Y, S11X, I17K, K28E
modifications: Y-Aib-EGT-αMeF(2F)-TSDY-Aib-I-αMeL-LD-Orn-K((2-[2-(2-Amino-ethoxy)-ethoxy]-acetyl)2-(γ-Glu)-(10-(4-carboxyphenoxy)decanoyl))AQ-Aib-EFI-(D-Glu)-αMeY-LIEGGPSSGAPPPSK((2-[2-(2-Amino-ethoxy)-ethoxy]-acetyl)2-(γ-Glu)-(10-(4-carboxyphenoxy)decanoyl))-NH2
B5: Example 241 (peptide)
peptide: B1 peptide with X10Y, S11X, E21K, K28E
modifications: Y-Aib-EGT-αMeF(2F)-TSDY-Aib-I-αMeL-LD-Orn-IAQ-Aib-K((2-[2-(2-Amino-ethoxy)-ethoxy]-acetyl)2-(γ-Glu)-(10-(4-carboxyphenoxy)decanoyl))FI-(D-Glu)-αMeY-LIEGGPSSGAPPPSK((2-[2-(2-Amino-ethoxy)-ethoxy]-acetyl)2-(γ-Glu)-(10-(4-carboxyphenoxy)decanoyl))-NH2
B6: Example 235 (peptide)
peptide: B1 peptide with X10Y, S11X, E21K, K28E
modifications: Y-Aib-EGT-aMeF(2F)-TSDY-Aib-I-aMeL-LD-Orn-IAQ-Aib-K((2-[2-(2-Amino-ethoxy)-ethoxy]-acetyl)2-(γ-Glu)-CO-(CH2)12-CO2H)FI-(D-Glu)-αMeY-LIEGGPSSGAPPPSK((2-[2-(2-Amino-ethoxy)-ethoxy]-acetyl)2-(γ-Glu)-CO-(CH2)12-CO2H)-NH2

Columns and labels:
[1] = molecular target: T1, human Gcg receptor (hGcgR) (Homo sapiens, UniProt P47871); test: [125I]-Glucagon binding, SPA with membranes of HEK293 cells expressing hGcgR; settings: human GcgR; geometric mean (SEM, n); read-out: Binding Affinity Ki, nM (SEM, n) hGCGR
T1 construct: expressed in transfected cells; crude membranes

[2] = molecular target: T2, human GLP-1 receptor (hGLP-1R) (Homo sapiens, UniProt P43220); test: [125I]-GLP-1 binding, SPA with membranes of HEK293 cells expressing hGLP-1R; settings: human GLP-1R; geometric mean (SEM, n); read-out: Binding Affinity Ki, nM (SEM, n) hGLP-1R
T2 construct: expressed in transfected cells; crude membranes

[3] = molecular target: T3, human GIP receptor (hGIPR) (Homo sapiens, UniProt P48546); test: [125I]-GIP binding, SPA with membranes of CHO cells expressing hGIPR; settings: human GIPR; geometric mean (SEM, n); read-out: Binding Affinity Ki, nM (SEM, n) hGIPR
T3 construct: expressed in transfected cells; crude membranes
T3 sequence (P48546 22-466): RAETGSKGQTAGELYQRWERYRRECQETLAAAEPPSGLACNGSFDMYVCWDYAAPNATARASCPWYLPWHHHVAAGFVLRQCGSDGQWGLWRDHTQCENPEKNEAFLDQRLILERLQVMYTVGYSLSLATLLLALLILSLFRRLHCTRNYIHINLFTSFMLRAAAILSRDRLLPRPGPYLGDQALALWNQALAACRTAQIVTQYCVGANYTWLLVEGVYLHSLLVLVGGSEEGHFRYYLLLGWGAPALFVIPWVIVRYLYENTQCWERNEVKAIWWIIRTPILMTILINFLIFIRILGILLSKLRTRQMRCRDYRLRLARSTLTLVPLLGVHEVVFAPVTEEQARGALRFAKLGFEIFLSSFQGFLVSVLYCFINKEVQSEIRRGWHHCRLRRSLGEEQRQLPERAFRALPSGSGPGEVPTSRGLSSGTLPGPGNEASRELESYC

hGIPR = molecular target: T4, hGIPR (Homo sapiens, UniProt P48546); test: Functional cAMP formation (HTRF) in HEK-293 clonal cells expressing hGIPR, 0.1% bovine casein, without or with 1.0% human serum albumin; assay type: cell-based; settings: 37° C.
T4 construct: expressed in transfected cells
T4 sequence (P48546 22-466): T3 sequence (P48546 22-466)
Outline: (§1)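 Cells were stimulated with peptide for 30 min at 37° C, then intracellular cAMP was measured by competitive HTRF (665/620 nm ratio) and converted to nM using a cAMP standard curve. Relative EC50 and Emax came from four-parameter logistic fits of percent maximal response against peptide concentration.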

hGCGR = molecular target: T5, hGCGR (Homo sapiens, UniProt P47871); test: Functional cAMP formation (HTRF) in HEK-293 clonal cells expressing hGCGR, 0.1% bovine casein, without or with 1.0% human serum albumin; assay type: cell-based; settings: cAMP, 37° C., read-out: hGCGR EC50, nM (SEM, n)
T5 construct: expressed in transfected cells
Outline: as §1

hGLP-1R = hGLP-1R (Homo sapiens, UniProt P43220); test: Functional cAMP formation (HTRF) in HEK-293 clonal cells expressing hGLP-1R, 0.1% bovine casein, without or with 1.0% human serum albumin; assay type: cell-based; design: expressed in transfected cells; settings: 37° C.
Outline: as §1

[4] = molecular target: human glucagon receptor (human) (UniProt P47871); test: cell-based or functional assay
[5] = molecular target: human glucagon-like peptide-1 (GLP-1) receptor (human) (UniProt P43220); test: cell-based or functional assay
[6] = molecular target: T6, human glucose-dependent insulinotropic polypeptide (GIP) receptor (human) (UniProt P48546); test: cell-based or functional assay
T6 sequence (looked up): T3 sequence (P48546 22-466)

human GIP receptor = molecular target: T7, human GIP receptor (human, UniProt P48546 22-466); test: cell-based or functional assay
T7 sequence (looked up): T3 sequence (P48546 22-466)

human GLP-1 receptor = human GLP-1 receptor (human, UniProt P43220 24-463); test: cell-based or functional assay
human glucagon receptor = human glucagon receptor (human, UniProt P47871 26-477); test: cell-based or functional assay

Chain of hGLP-1R (P43220 24-463): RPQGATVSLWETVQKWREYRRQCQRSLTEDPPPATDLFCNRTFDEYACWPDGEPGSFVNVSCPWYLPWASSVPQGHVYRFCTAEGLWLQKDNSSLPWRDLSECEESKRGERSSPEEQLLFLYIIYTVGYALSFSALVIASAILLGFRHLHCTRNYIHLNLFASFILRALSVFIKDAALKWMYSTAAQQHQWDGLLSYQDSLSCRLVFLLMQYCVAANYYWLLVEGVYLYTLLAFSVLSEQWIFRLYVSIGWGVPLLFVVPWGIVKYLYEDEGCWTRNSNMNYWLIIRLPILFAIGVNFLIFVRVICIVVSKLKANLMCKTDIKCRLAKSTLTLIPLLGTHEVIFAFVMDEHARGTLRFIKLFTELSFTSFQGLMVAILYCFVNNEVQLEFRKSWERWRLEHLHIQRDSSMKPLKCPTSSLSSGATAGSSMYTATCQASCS
T5 sequence (P47871 26-477): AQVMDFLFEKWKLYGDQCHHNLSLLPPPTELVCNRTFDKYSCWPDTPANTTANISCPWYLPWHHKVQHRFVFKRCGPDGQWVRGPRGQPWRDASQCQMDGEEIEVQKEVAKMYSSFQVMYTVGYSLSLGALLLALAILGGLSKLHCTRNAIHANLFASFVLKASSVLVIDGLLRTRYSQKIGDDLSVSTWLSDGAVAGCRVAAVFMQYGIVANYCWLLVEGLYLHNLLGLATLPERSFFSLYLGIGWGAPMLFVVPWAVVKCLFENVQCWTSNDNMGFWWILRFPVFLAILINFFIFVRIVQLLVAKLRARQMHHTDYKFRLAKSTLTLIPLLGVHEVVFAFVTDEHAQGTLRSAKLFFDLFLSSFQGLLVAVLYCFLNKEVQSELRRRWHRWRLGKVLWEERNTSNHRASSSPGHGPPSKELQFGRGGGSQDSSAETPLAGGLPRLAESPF
T2 sequence (P43220 24-463): as the sequence (P43220 24-463) above
T1 sequence (P47871 26-477): as the sequence (P47871 26-477) above

Molecule	Ki [1] [nM]	Ki [2] [nM]	Ki [3] [nM]	Emax (hGIPR; HEK293, cAMP, 0.1% bovine casein and 1.0% human serum albumin, percent of maximal response to GIP(1-42)NH2, read-out: hGIPR Emax, % ± SEM) [%]	EC50 (hGIPR; cAMP, 0.1% bovine casein (no human serum albumin), geometric mean, read-out: hGIPR EC50, nM (SEM, n)) [nM]	EC50 (hGCGR; 0.1% bovine casein (no human serum albumin), geometric mean) [nM]	EC50 (hGCGR; 0.1% bovine casein and 1.0% human serum albumin, geometric mean (SEM, n)) [nM]	Emax (hGLP-1R; HEK293, cAMP, 0.1% bovine casein, percent of maximal response to GLP-1(7-36)NH2, arithmetic mean, read-out: hGLP-1R Emax, % ± SEM) [%]	EC50 (hGLP-1R; cAMP, 0.1% bovine casein (no human serum albumin), geometric mean, read-out: hGLP-1R EC50, nM (SEM, n)) [nM]	cAMP EC50 [4] [nM]	cAMP EC50 [5] [nM]	cAMP Emax [5] [%]	cAMP EC50 [6] [nM]	cAMP Emax [6] [%]	cAMP EC50 (1.0% HSA) (human GIP receptor) [nM]	cAMP Emax (1.0% HSA) (human GIP receptor) [%]	cAMP EC50 (1.0% HSA) (human GLP-1 receptor) [nM]	cAMP Emax (1.0% HSA) (human GLP-1 receptor) [%]	cAMP EC50 (1.0% HSA) (human glucagon receptor) [nM]
CC[C@H](C)[C@H](NC(=O)[C@H](CC(C)C)NC(=O)[C@](C)(Cc1ccc(O)cc1)NC(=O)[C@H](CCCCNC(=O)CCCCCNC(=O)COCCOCCNC(=O)CC[C@H](NC(=O)CCCCCCCCCCCCC(=O)O)C(=O)O)NC(=O)[C@@H](NC(=O)[C@H](Cc1ccccc1)NC(=O)[C@H](CCCN)NC(=O)C(C)(C)NC(=O)[C@H](CCC(N)=O)NC(=O)[C@H](C)NC(=O)[C@H](CCC(N)=O)NC(=O)[C@H](CCCN)NC(=O)[C@H](CC(=O)O)NC(=O)[C@H](CC(C)C)NC(=O)[C@](C)(CC(C)C)NC(=O)[C@@H](NC(=O)C(C)(C)NC(=O)[C@H](Cc1ccncc1)NC(=O)[C@H](CC(=O)O)NC(=O)[C@H](CO)NC(=O)[C@@H](NC(=O)[C@](C)(Cc1ccccc1F)NC(=O)[C@@H](NC(=O)CNC(=O)[C@H](CCC(=O)O)NC(=O)C(C)(C)NC(=O)[C@@H](N)Cc1ccc(O)cc1)[C@@H](C)O)[C@@H](C)O)[C@@H](C)CC)[C@@H](C)CC)C(=O)N[C@@H](CCCCNC(=O)CCCCCNC(=O)COCCOCCNC(=O)CC[C@H](NC(=O)CCCCCCCCCCCCC(=O)O)C(=O)O)C(=O)NCC(=O)NCC(=O)N1CCC[C@H]1C(=O)N[C@@H](CO)C(=O)N[C@@H](CO)C(=O)NCC(=O)N[C@@H](C)C(=O)N1CCC[C@H]1C(=O)N1CCC[C@H]1C(=O)N1CCC[C@H]1C(=O)N[C@@H](CO)C(N)=O [Example 451]	258	0.234	0.0239	89.5	0.0113	> 9950	> 9950	118	0.172	–	–	–	–	–	–	–	–	–	–
B1	–	–	–	–	–	–	–	–	–	> 9950	1.43	94	0.0252	103	7.84	79.2	90.5	115	> 9950
B2	–	–	–	–	–	–	–	–	–	> 9950	0.565	103	0.0192	101	1.86	–	33.6	95.4	> 9950
B3	–	–	–	–	–	–	–	–	–	> 9950	2.25	94.3	0.0253	103	7.35	80.5	135	99	> 9950
B4	–	–	–	–	–	–	–	–	–	> 9950	1.03	107	0.0214	104	1.31	–	27.2	103	> 9950
B5	–	–	–	–	–	–	–	–	–	> 9950	0.362	91	0.0213	105	8.02	84.9	103	105	> 9950
B6	–	–	–	–	–	–	–	–	–	> 9950	0.295	104	0.0168	99.3	10.1	92.2	598	152	> 9950
